Source: paper PMC8466245

Assays:
[1] = target: Glycymeris yessoensis lectin (GYL) (Glycymeris yessoensis); assay: MALDI-TOF mass spectrometry; Ultraflex III MALDI-TOF/TOF; singly charged ions of the subunit and of the subunit dimer
[2] = target: Glycymeris yessoensis lectin (GYL) (Glycymeris yessoensis); assay: SDS-PAGE without and with DTT; 15% separation gel, in the absence and presence of 10 mM DTT; disulfide-linked (covalent) dimer to subunits

- stoichiometry N [1]: 2
- stoichiometry N [2]: 2
Substance: Glycymeris yessoensis lectin (GYL) (natural protein)
